# T1: Recombinant mouse neogenin-Fc chimera protein (mouse, UniProt P97798 37-1136)
# T1 construct: neogenin, mouse, extracellular domain (ECD); No catalogue number printed; detected by an anti-IgG Fc antibody; also called neogenin-ECD-Fc; Fc-fused neogenin ECD; source: bought: R&D Systems
# T1 sequence (looked up): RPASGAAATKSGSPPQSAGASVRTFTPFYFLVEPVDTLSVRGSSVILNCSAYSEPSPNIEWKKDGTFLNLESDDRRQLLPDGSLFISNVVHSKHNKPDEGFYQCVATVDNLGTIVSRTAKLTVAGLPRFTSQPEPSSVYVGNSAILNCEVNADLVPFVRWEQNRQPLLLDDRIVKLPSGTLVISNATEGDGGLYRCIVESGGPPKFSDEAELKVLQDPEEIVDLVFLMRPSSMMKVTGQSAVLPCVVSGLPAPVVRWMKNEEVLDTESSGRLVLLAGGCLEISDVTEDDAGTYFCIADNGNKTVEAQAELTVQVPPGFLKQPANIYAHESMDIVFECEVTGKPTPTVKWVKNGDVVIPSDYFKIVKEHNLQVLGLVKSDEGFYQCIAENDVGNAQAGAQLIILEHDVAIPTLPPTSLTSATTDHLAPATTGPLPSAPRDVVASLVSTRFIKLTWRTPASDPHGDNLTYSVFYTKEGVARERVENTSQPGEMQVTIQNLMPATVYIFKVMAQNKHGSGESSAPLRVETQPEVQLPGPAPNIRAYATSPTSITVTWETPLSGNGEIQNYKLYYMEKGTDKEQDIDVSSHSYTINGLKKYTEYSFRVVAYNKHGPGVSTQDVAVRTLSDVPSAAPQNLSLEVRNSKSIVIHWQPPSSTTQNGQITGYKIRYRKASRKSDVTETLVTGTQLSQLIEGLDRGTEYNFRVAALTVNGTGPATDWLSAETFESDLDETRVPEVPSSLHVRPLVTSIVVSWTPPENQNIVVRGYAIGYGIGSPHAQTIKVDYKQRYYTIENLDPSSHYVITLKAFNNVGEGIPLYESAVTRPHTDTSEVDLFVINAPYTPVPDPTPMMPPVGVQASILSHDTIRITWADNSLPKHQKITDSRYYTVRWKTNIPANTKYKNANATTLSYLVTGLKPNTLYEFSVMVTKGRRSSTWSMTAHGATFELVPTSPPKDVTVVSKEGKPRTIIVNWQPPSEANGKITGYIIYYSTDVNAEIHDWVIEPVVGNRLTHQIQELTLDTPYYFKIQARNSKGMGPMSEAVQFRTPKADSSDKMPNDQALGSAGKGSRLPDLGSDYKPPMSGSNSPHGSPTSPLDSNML
# B1: RGMa peptide 4 (aa 284-293) fused with an N-terminal TAT protein (peptide)
# peptide: YGRKKRRQRRRRQVGRYLTFA
# notes: The TAT-fused form was used in the ELISA; peptide 4 without TAT was used in the growth cone collapse assay; also called Pep4; source: synthetic peptide (SIGMA Life Science, Japan)
# Target: T1, Recombinant mouse neogenin-Fc chimera …
# Experiment: ELISA; synthetic TAT-RGMa peptides coated on the plate (5 µg/mL, 16 h, 4°C), blocked with 5% BSA/PBS; neogenin-Fc added at 1 µg/mL for 1 h; detected with anti-IgG Fc antibody and HRP secondary, A450
# Details: both partners purified
binder,measurement,value
B1,binding result,binds

# Source: paper PMC3291610, “Identification of the Neogenin-Binding Site on the Repulsive Guidance Molecule A” (PLoS ONE, 2012)
